Literature values as cited in paper PMC11596140.
pKd: −log10 of the molar value.

Target: Cdc4 (Saccharomyces cerevisiae) (UniProt P07834)
Assay: intrinsic Trp fluorescence

Sequence of UniProt P07834 (P07834 whole entry): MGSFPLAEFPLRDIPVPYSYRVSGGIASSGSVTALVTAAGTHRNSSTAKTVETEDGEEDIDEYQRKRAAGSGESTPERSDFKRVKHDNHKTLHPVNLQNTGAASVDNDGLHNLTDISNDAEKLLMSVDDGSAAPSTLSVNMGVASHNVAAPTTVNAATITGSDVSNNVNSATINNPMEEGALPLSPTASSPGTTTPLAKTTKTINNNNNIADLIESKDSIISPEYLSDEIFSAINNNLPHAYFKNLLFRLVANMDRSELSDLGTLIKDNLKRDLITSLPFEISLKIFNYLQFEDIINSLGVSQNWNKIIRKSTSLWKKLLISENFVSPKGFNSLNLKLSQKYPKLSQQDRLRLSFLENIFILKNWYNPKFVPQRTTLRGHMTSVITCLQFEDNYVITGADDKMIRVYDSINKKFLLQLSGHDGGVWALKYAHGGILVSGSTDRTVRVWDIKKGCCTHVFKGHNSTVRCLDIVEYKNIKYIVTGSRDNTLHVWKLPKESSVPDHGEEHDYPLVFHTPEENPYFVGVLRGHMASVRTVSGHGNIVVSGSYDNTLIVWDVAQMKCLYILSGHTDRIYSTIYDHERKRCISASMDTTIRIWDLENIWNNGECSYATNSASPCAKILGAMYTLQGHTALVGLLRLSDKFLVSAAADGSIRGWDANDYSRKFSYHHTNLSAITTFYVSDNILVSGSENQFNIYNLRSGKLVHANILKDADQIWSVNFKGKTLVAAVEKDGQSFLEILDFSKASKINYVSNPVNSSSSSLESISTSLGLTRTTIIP

pKd: 6.22
Substance: Sic1 (from UniProt P38634)
